Target: PapMV coat protein CPΔN5 (disks) (Papaya mosaic virus) (UniProt P16596)
Experiment: EMSA
Details: shift with 500 ng (22 pmol as printed) protein in 10 µl, 165 fmol RNA; cooperative; weak affinity; room temperature 60 min

Substance: PapMV 5' non-coding 80 nt RNA probe
- binding: 500 ng

— US9339535
